Paper PMC3735194 (mBio, 2013)
Numbering of substitutions follows the chain as printed. In names and notes the source's numbering stands.

B1: D166A mutant ADI (enzyme, UniProt P0C0B3 1-411, looked up)
chain: MTAQTPIHVYSEIGKLKKVLLHRPGKEIENLMPDYLERLLFDDIPFLEDAQKEHDAFAQALRDEGIEVLYLETLAAESLVTPEIREAFIDEYLSEANIRGRATKKAIRELLMAIEDNQELIEKTMAGVQKSELPEIPASEKGLTDLVESNYPFAIDPMPNLYFTRAPFATIGTGVSLNHMFSETRNRETLYGKYIFTHHPIYGGGKVPMVYDRNETTRIEGGDELVLSKDVLAVGISQRTDAASIEKLLVNIFKQNLGFKKVLAFEFANNRKFMHLDTVFTMVDYDKFTIHPEIEGDLRVYSVTYDNEELHIVEEKGDLAELLAANLGVEKVDLIRCGGDNLVAAGREQWNDGSNTLTIAPGVVVVYNRNTITNAILESKGLKLIKIHGSELVRGRGGPRCMSMPFEREDI
B2: E220A mutant ADI (enzyme, UniProt P0C0B3 1-411, looked up)
chain: B1 chain with A166D, E220A
B3: H275A mutant ADI (enzyme, UniProt P0C0B3 1-411, looked up)
chain: B1 chain with A166D, H275A
B4: D277A mutant ADI (enzyme, UniProt P0C0B3 1-411, looked up)
chain: B1 chain with A166D, D277A
B5: C401A mutant ADI (enzyme, UniProt P0C0B3 1-411, looked up)
chain: B1 chain with A166D, C401A

Biological target: the molecule itself
Experiment: native MS

| Protein | stoichiometry N |
| --- | --- |
| B1 | 2 |
| B2 | 2 |
| B3 | 2 |
| B4 | 2 |
| B5 | 4 |
